Source: publication PMC9884024 (2022)

B1: MdHY5 (as used in the BLI assay) (natural protein)
chain: MQEQATSSLAASSLPSSSERSSSSAFHLEVKEGMESDEEIGRVPEIGGESAGASASARENGLLAGPDQVQTAGESQRKRGRNPADKESKRLKRLLRNRVSAQQARERKKAYLNDLEVRVKELEQKNSELDERLSTLQNENQMLRHILKNTTASRRGADGGANAD
B2: MdMPK6-02G (as used in the BLI assay) (enzyme)
chain: MEGGGRSADTMMSEAAPPSQPDPNHPQQHPPPPHHAMGGVESIPATLSHGGRFIQYNIFGNVFEVTAKYKPPIMPIGKGAYGIVCSALNSETNEHVAVKKIANAFDNRIDAKRTLREIKLLRHMDHENVVAIRDIIPPPQRNFFNDVYIAYELMDTDLHQIIRSNQALSEEHCQYFLYQILRGLKYIHSANVLHRDLKPSNLLLNANCDLKICDFGLARVTSETDFMTEYVVTRWYRAPELLLNSSDYTAAIDVWSVGCIFMELMDRKPLFPGRDHVHQLRLLMELIGTPSEAELQFLNENAKRYIRQLPLYRRQSFTEKFPHVHPSAIDLVEKMLTFDPTRRITVEDALAHPYLTSLHDISDEPVCLTPFSFDFEQHALSEEQMKELIYREALAFNPEYQRQ

What was measured:
Test in all cases: BLI
[1] = biological target: MdMPK6-15G (as used in the BLI assay) (Malus domestica (apple))
[2] = biological target: B1
[3] = biological target: B1

Kd [1] [nM] | koff [1] [s⁻¹] | koff [2] [s⁻¹] | Kd [3] [nM] | Binder
93.9 | 0.00105 |  |  | B1
 |  | 0.00355 | 119 | B2
